Source: patent publication US20220332795A1

Target: human serum albumin (human) (UniProt P02768)
Assay: primary solution ELISA screen

Sequence of human serum albumin (human) (P02768 25-609 limits assumed): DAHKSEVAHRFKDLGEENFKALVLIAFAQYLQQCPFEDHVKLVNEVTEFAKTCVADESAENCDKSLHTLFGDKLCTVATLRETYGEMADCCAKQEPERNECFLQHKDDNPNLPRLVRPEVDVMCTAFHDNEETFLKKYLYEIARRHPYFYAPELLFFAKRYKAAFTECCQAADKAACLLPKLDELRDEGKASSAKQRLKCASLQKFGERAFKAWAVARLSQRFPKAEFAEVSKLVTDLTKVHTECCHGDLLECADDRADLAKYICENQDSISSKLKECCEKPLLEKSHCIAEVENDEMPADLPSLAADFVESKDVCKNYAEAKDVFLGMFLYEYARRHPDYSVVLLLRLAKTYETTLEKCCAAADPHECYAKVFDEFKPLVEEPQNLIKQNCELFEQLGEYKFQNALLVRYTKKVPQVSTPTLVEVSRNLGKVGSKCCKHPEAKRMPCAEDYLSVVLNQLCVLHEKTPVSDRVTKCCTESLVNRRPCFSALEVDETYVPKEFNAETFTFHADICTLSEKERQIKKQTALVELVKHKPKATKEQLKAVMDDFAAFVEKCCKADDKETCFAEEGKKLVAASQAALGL

RLU	Binder
111000 RLU	SEQ ID NO 83 (designed binder, not shown: small tags and cut ends) MLPAPKNLVVSRVTEDSARLSWTAPDAAFDSFPIAYAEPRPDGEAIVLTVPGSERSYDLTGLKPGTEYSVLIHGVKGGLLSSPLSAISTT
14800 RLU	SEQ ID NO 82 (designed binder, not shown: small tags and cut ends) MLPAPKNLVVSRVTEDSARLSWTAPDAAFDSFLIPYAETSPSGEAIVLTVPGSERSYDLTGLKPGTEYSVLIHGVKGGDYSSPLSAIFTT
127000 RLU	SEQ ID NO 84 (designed binder, not shown: small tags and cut ends) MLPAPKNLVVSRVTEDSARLSWQGVARAFDSFSILYLELTPKGEAIVLTVPGSERSYDLTGLKPGTEYPVWIQGVKGGSPSAPLSAEFTT
9850 RLU	SEQ ID NO 81 (designed binder, not shown: small tags and cut ends) MLPAPKNLVVSRVTEDSARLSWQGVARAFDSFLITYVELRHLGEAIVLTVPGSERSYDLTGLKPGTEYPVWIQGVKGGSPSAPLSAEFTT
6350 RLU	SEQ ID NO 85 (designed binder, not shown: small tags and cut ends) MLPAPKNLVVSRVTEDSARLSWTAPDAAFDSFIIEYFEPIPIGEAIVLTVPGSERSYDLTGLKPGTEYAVNIYGVKGGYLSHPLSAIFTT
6000 RLU	SEQ ID NO 79 (designed binder, not shown: small tags and cut ends) MLPAPKNLVVSRVTEDSARLSWTAPDAAFDSFVIEYTERFWSGEAIVLTVPGSERSYDLTGLKPGTEYSVPIDGVKGGQCSTPLSAIFTT
33600 RLU	SEQ ID NO 80 (designed binder, not shown: small tags and cut ends) MLPAPKNLVVSRVTEDSARLSWTAPDAAFDSFWIDYEEEGVIGEAIYLHVPGSERSYDLTGLKPGTEYVVKIHGVKGGHPSHPLVAVFTT
9350 RLU	SEQ ID NO 78 (designed binder, not shown: small tags and cut ends) MLPAPKNLVVSRVTEDSARLSWTAPDAAFDSFGIGYYEHKRFGEAIQLSVPGSERSYDLTGLKPGTEYEVDIEGVKGGVLSWPLFAEFTT

Continued, binder first:

Binder	RLU
SEQ ID NO 77 (designed binder, not shown: small tags and cut ends) MLPAPKNLVVSRVTEDSARLSWTAPDAAFDSFPIAYAEPRPDGEAIVLTVPGSERSYDLTGLKPGTEYSVLIHGVKGGLLSSPLSAIFTT	10400 RLU
SEQ ID NO 73 (designed binder, not shown: small tags and cut ends) MLPAPKNLVVSEVTEDSARLSWQGVARAFDSFLITYREQIFAGEVIVLTVPGSERSYDLTGLKPGTEYPVWIQGVKGGSPSAPLSAESTT	20200 RLU
SEQ ID NO 72 (designed binder, not shown: small tags and cut ends) MLPAPKNLVVSRVTEDSARLSWTAPDAAFDSFTIGYREWYWYGEAIVLTVPGSERSYDLTGLKPGTEYNVPISGVKGGLDSFPLSAIFTT	8950 RLU
SEQ ID NO 76 (designed binder, not shown: small tags and cut ends) MLPAPKNLVVSRVTEDSARLSWTAPDAAFDSFTIEYYENIGIGEAIVLTVPGSERSYDLTGLKPGTEYSVPIVGVKGGPYSHPLSAIFTT	16300 RLU
SEQ ID NO 10 (designed binder, not shown: small tags and cut ends) MLPAPKNLVVSRVTEDSARLSWTAPDAAFDSFKIAYIETATRGEAIVLTVPGSERSYDLTGLKPGTEYVVPIPGVKGGNTSSPLSAIFTT	29300 RLU
SEQ ID NO 74 (designed binder, not shown: small tags and cut ends) MLPAPKNLVVSRVTEDSARLSWTAPDAAFDSFSITYLEWWNLGEAIVLTVPGSERSYDLTGLKPGTEYMVTIPGVKGGMSSYPLSAIFTT	14600 RLU
SEQ ID NO 75 (designed binder, not shown: small tags and cut ends) MLPAPKNLVVSRVTEDSARLSWTAPDAAFDSFTISYGEEALIGEAIYLRVPGSERSYDLTGLKPGTEYYVHIEGVKGGSWSQPLAAAFTT	3700 RLU
SEQ ID NO 71 (designed binder, not shown: small tags and cut ends) MLPAPKNLVVSRVTEDSARLSWTAPDAAFDSFPISYLELSLYGEAIVLTVPGSERSYDLTGLKPGTEYPVGIAGVKGGVVSRPLSAIFTT	27500 RLU
